The test concerns the target T1, polypeptide consisting of the amino acid sequence represented by SEQ ID NO: 01, contained in troponin I … (human).
T1 peptide: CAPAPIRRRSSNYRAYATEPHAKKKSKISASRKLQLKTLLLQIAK
Briefly: phage ELISA; average absorbance relative to example 2-1 (no heat); told of the conditions <=70 C and <=5 min, <=60 C and <=10 min, <=50 C and <=20 min, <=37 C and <=60 min. The procedure: Pursuant to the step (a-8), the ELISA plate was prepared.
A phage binding ratio was calculated from Table 10 on the basis of the following formula (I): […]
In general terms: In an ELISA, binding on a coated surface is turned into a signal by an enzyme label.

B1: A2 antibody-displayed phage (scFv)
scFv: DVVLTQSPLTLSVTIGQPASISCKSSQSLLDSDGKTYLNWLLQRPGQSPKRLIYLVSKLDSGVPDRFTGSGSGTDFTLKISRVEAEDLGVYYCWQGTHFPLTFGAGTKLEIKRGGGGSGGGGSGGGGSQLQLQQSGAELVRSGASVKLSCTASGFNIKDYYMNWVKQRPEQGLEWIGWIDPANGDTAYAPRFQVKATMTADKSSNTAYLQLSSLTSEDTAVYYCNADLPMDQWGQGTSVTVSS
notes: 67, 68, 69 its parts; they must be translated; also called A2 antibody fragment; A2 scFv antibody fragment
On to B1, for which the phage binding ratio was found to be 40%.

Source of the values: patent US20140128569A1 (PANASONIC, published 2014).
